In patent US12305172:
Where two headings read alike, the source gives them in different places.

How the values were obtained:
thrombin = thrombin (UniProt P00734+P00734); details: CD titration at 295 nm, water, no added cations
thrombin (Bos taurus) = thrombin (Bos taurus) (UniProt P00735+P00735); assay: inhibition; details: clotting time

Question: How did the Kd (thrombin; n = 1) turn out when GGTTGGTGTGGTTGG [TBA] was run?
Answer: 0.38 µM

Question: What does the source list for GGUUGGUGUGGUUGG [iso-rTBA]?
Answer: activity (thrombin (Bos taurus); all 2'-5'-linked RNA (3'-OH), SEQ ID NO:1, 0.25 uM oligomer, 0.1 NIH U thrombin, 3.5 uM human fibrinogen, 37 °C): 70.9 s; Kd (thrombin; all 2'-5'-linked RNA (3'-OH), SEQ ID NO:1, n = 4 thrombin per oligomer): 3.4 µM

Question: How did the activity (thrombin (Bos taurus); 2'-5'-linked isoDNA analogue of TBA [1-15 (all 2'-5'-linked isoDNA)], stated for comparison with TBA and iso-rTBA) turn out when GGTTGGTGTGGTTGG [isoTBA] was run?
Answer: 73.4 s
